The text below walks through data of the RNAGym collection of RNA variant scans (doi:10.1021/acssynbio.7b00057).

Sequences and labels used below:
B1: Pistol ribozyme (parent)
chain: GGGUCGUUGUUCCAUAAUCGCGUGGAUAUGGCACGCAAGUUUCUACCGGGCACCGUAAAUGUCCGACUGGAGCCGUUCGGGCGGCUAUAAACAGACCUCAGGCCCGAAGCGUGGCGGCACCUGCCGCCGGUGGUAAAAAAGAUCGGAAGAGCACACGUCU

Variants of B1 are the subject of the data set. Kind of data set: aptazyme ON/OFF ratio, guanine; higher = stronger switching; co-transcriptional cleavage with and without guanine.
For U7G G9A U10G C12A C13A, the “aptazyme ON/OFF ratio” value came out at 1.08.

Regarding U7C U8C U11G C12G C13G, the “aptazyme ON/OFF ratio” value is 1.16.

For U7G U8A G9A U10A U11A C13G, the “aptazyme ON/OFF ratio” value came out at 1.06. Take U7G U8A U10C U11C: the “aptazyme ON/OFF ratio” value was determined as 1.11. The result for U8A G9U U10A U11A C13U reads 1.28; that for U8G U10G U11C C12U C13A, 1.06; that for G9C U10A U11A C12G C13A, 1.31. Next, U8A U11A C13U: 1.15; U7C U8A U10A U11G C12U C13G: 1.29; U10C C12G C13U: 1.35. Next, U8G C12U C13U: 1.18; U7C U8C G9C U10A U11A C12A C13A: 1.09. Regarding U7C G9C U10A U11G C13U, the “aptazyme ON/OFF ratio” value came out at 1.09. The result for U7G U8C U10C U11C C13G reads 1.04; that for G9C U10A U11G, 2.06; that for U7C U8C U11C C12A C13A, 1.3. The result for U7G U8C U10G C12A C13U reads 1.2. U8C G9A U10C U11G C12U: the “aptazyme ON/OFF ratio” value worked out at 1.29. On to U7G U8C G9C U10A C13G, for which the “aptazyme ON/OFF ratio” value came to 1.07.

On to U7G G9A U10G U11G C12A C13U, for which the “aptazyme ON/OFF ratio” value was determined as 1.1. Next, U8G G9C U11A C12U: 1.05.

U7C U10G U11G C12G C13A: the “aptazyme ON/OFF ratio” value was 1.1. Take U7C U8G G9C U10A U11A C13U: the “aptazyme ON/OFF ratio” value turned out to be 1.2. The result for U7C U8G G9A U10C U11A C12G C13U reads 1.11; that for U7G G9A U11C C12U C13U, 1.3.

As to U8A G9C U11C C12G C13U, the “aptazyme ON/OFF ratio” value is 1.06.

As to U7G U8C G9C U10C, the “aptazyme ON/OFF ratio” value amounted to 1.92. Next, U7A U8A U10C U11G C13A: 1.13; U7C U8A G9A U10A C13A: 1.15; U7A U8G U10A U11C: 1.11.

Turning to U8C U11A C12A C13U, the “aptazyme ON/OFF ratio” value stood at 1.28.

Take U10C C13G: the “aptazyme ON/OFF ratio” value amounted to 1.05. The result for U7G G9A U10G C13U reads 1.12; that for U8G G9A U10G U11A C12U C13A, 1.34. The result for U7G U8C G9U U10C U11G reads 1.76. Next, U7C U8C G9U U10G U11C C13U: 1.21; G9U U11C C13A: 1.22. Consider U7A U8C G9U U11C C12A C13G, for which the “aptazyme ON/OFF ratio” value came to 1.1. Consider U8G G9U U10C U11G C12A, for which the “aptazyme ON/OFF ratio” value was 1.12.

As for U8G U10G C12U C13U, the “aptazyme ON/OFF ratio” value was found to be 1.2.

Turning to U7A U8G G9A U11G C12G C13A, the “aptazyme ON/OFF ratio” value turned out to be 1.1. In the case of U7G U8C G9A U11A C12U C13U, the “aptazyme ON/OFF ratio” value was determined as 1.05.

As to U7G U8A G9C U10A C12G, the “aptazyme ON/OFF ratio” value worked out at 1.01. Take U7A U8C G9A U10A U11G C12G C13A: the “aptazyme ON/OFF ratio” value was found to be 1.11. With U7A U8C G9A U10A U11A C12U C13U, the “aptazyme ON/OFF ratio” value is 1.3. The result for U7A G9A U10A U11C C13U reads 1.06; that for U7A G9A U10A U11C C13G, 1.1; that for U8C G9C U10G U11C C12G C13U, 1.17. As for U7C U8G U10G C12U C13A, the “aptazyme ON/OFF ratio” value came out at 1.27.

For U8A G9A U10A U11G C12U C13U, the “aptazyme ON/OFF ratio” value turned out to be 1.4. The result for U7G U8C G9A U10G U11G C12A C13U reads 1.3. Next, U7C U8G G9U U10G: 1.28; U7A G9U U10C C12G C13G: 1.29; U8G G9C U10G U11A C12U C13A: 1.16.

For U8G G9C U10G U11A C12U C13G, the “aptazyme ON/OFF ratio” value turned out to be 1.15.

As to U7C U10A U11C C13A, the “aptazyme ON/OFF ratio” value is 1.02. Take G9A U10C U11G C13U: the “aptazyme ON/OFF ratio” value turned out to be 1.39. Consider U7C U8C G9A U10A U11A C12A, for which the “aptazyme ON/OFF ratio” value is 1.5. Next, U8G G9C U11G C12U C13G: 1.13. Turning to U7G U8A U10A U11A C12U C13U, the “aptazyme ON/OFF ratio” value turned out to be 1.31.

As to U7G U8A U10G U11C C12A C13A, the “aptazyme ON/OFF ratio” value worked out at 1.43. Consider U7G U8C G9U C13U, for which the “aptazyme ON/OFF ratio” value worked out at 2.37. As to U7G U8C G9A U10C U11G C12G C13U, the “aptazyme ON/OFF ratio” value turned out to be 1.05.

U10A U11C C12A: the “aptazyme ON/OFF ratio” value was 1.16. In the case of U7C U8A G9A U10G U11C C12U C13G, the “aptazyme ON/OFF ratio” value turned out to be 1.14. For U7C U8C G9U U10C U11C C12U C13U, the “aptazyme ON/OFF ratio” value came out at 1.08. Next, U7G U8C G9A U10C U11C C13G: 1.03.

On to U7G U10C U11G C13G, for which the “aptazyme ON/OFF ratio” value was 1.09. As for U7A U8A G9U U11C C12U, the “aptazyme ON/OFF ratio” value is 1.13. Next, U8G U10A U11G C12G C13G: 1.14; U7A U8A G9C U10G C12A C13G: 1.09. The result for U7G U8C G9A U10C U11C C12A C13U reads 1.2. The result for U7C U8A G9U U10G U11A C12G C13A reads 1.21. Turning to U8A U10C C12G C13U, the “aptazyme ON/OFF ratio” value came to 1.44. Turning to U8G G9A U10C U11G C12U C13A, the “aptazyme ON/OFF ratio” value was 1.34. Next, U7G U8A G9C C12U C13A: 1.06. The result for U7C U8A G9A U10A C12U C13A reads 1.15. Next, U7G U8G G9U U10A C12U: 1.29; U7A U8G G9U U11G C12G C13A: 1.22. As to U7G G9A U10A U11C C12U C13A, the “aptazyme ON/OFF ratio” value is 1.15. As for U8A U10C U11C C13A, the “aptazyme ON/OFF ratio” value came out at 1.01. The result for U8A G9U U10C U11C C12A reads 1.01; that for U7G U8G U10A U11A C12U C13G, 1.22.
